Assay results published in patent US20070136826A1 (Biogen, published 2007).

T1: Mouse CD20 with C-terminal V5 peptide tag, on transfected 300.18 cells (mouse, UniProt P19437 1-291)
T1 sequence: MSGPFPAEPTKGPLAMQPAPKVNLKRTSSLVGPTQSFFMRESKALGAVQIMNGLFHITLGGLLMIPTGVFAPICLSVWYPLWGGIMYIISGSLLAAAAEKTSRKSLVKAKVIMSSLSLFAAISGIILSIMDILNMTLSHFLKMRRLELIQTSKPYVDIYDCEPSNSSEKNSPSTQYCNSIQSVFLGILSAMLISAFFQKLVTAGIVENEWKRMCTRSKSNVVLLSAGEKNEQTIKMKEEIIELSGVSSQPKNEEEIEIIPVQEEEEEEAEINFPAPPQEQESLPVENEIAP

T2: Mouse CD20 (endogenous, on mouse B cell lines and splenic B cells) (mouse, UniProt P19437 1-291)
T2 construct: also called mCD20
T2 sequence: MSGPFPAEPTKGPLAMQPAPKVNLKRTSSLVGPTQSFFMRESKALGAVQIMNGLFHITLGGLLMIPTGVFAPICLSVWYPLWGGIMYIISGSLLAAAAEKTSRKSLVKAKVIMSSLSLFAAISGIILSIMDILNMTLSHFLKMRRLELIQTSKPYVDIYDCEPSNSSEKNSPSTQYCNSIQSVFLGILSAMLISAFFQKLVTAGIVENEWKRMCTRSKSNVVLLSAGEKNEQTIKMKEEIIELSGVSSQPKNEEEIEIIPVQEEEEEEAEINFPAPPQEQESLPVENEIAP

T3: Mouse CD20 with C-terminal Idectin peptide tag, on transfected CHO cells (mouse, UniProt P19437 1-291)
T3 construct: also called CHO-CD20; CHO cells transfected with mouse CD20; not shown: Idectin peptide tag at the 3' end of the gene (N5K-CtIdectin-B7.1-Ig vector)
T3 sequence: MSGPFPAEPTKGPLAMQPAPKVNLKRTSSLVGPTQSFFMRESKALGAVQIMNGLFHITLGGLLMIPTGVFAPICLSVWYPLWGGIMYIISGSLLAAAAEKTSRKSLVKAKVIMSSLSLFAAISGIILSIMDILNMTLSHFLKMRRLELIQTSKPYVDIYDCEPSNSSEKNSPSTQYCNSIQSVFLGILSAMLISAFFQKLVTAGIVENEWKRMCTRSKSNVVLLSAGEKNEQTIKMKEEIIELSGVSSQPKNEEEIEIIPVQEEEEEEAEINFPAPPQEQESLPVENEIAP

T4: Rat CD20 (rat, UniProt D4A4Y3 1-287)
T4 construct: whole, on cells; also called CD20 on rat splenic B cells and rat B cell lines
T4 sequence: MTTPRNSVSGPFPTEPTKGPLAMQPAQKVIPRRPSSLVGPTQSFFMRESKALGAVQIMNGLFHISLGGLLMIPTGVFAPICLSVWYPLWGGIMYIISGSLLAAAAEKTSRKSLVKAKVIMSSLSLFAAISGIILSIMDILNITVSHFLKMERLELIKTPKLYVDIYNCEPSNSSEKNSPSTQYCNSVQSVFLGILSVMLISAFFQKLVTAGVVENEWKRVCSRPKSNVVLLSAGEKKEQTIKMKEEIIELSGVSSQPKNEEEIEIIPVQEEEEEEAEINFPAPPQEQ


How the values were obtained:
[1] = biological target: Mouse CD20 with C-terminal Idectin peptide tag, on transfected CHO cells (mouse) (UniProt P19437); assay: flow cytometry on CHO-CD20 cells; isotype control, PE-anti-mouse IgG2b
[2] = biological target: Mouse CD20 (endogenous, on mouse B cell lines and splenic B cells) (mouse) (UniProt P19437); assay: flow cytometry on NS-1 cells; isotype control, PE-anti-mouse IgG2b
[3] = biological target: Mouse CD20 (endogenous, on mouse B cell lines and splenic B cells) (mouse) (UniProt P19437); assay: flow cytometry on WEHI 279 cells; isotype control, PE-anti-mouse IgG2b
[4] = biological target: Mouse CD20 (endogenous, on mouse B cell lines and splenic B cells) (mouse) (UniProt P19437); assay: flow cytometry on BCL 1/3B3 cells; isotype control, PE-anti-mouse IgG2b
[5] = biological target: Mouse CD20 (endogenous, on mouse B cell lines and splenic B cells) (mouse) (UniProt P19437); assay: flow cytometry on A20 cells; isotype control, PE-anti-mouse IgG2b
[6] = biological target: Mouse CD20 (endogenous, on mouse B cell lines and splenic B cells) (mouse) (UniProt P19437); assay: flow cytometry on wild type C57Bl/6 splenocytes; isotype control, PE-anti-mouse IgG2b
[7] = biological target: Mouse CD20 with C-terminal V5 peptide tag, on transfected 300.18 cells (mouse) (UniProt P19437); assay: flow cytometry on 300.18-CD20 cells; isotype control, PE-anti-mouse IgG2b
[8] = biological target: T1, Mouse CD20 with C-terminal V5 peptide …; assay: flow cytometry on transfected 300.18 cells
Method: (§1) Cell Staining and Flow Cytometry Analyses. All staining procedures were done in round bottom 96-well plates (Corning 3799) in FACS buffer (Dulbecco's PBS supplemented with 2% FBS, 0.05% sodium azide, 10% normal goat serum (heat inactivated), and 2.4G2 (1 ug/ml). None of the monoclonal secondary antibodies used recognized rat IgG2b (the 2.4G2 antibody). Cells (1×10⁵ to 1×10⁶) were incubated with primary or secondary antibodies for 45 minutes each on ice, washed between incubations, and resuspended at 1×10⁶ cells/ml in FACS buffer for analyses. Fluorescence was measured on a FACSArray or FACSCalibur and analyzed with BD FACSArray System Software or Cell Quest Pro software.

[9] = biological target: T2, Mouse CD20 (endogenous, on mouse B cell …); assay: summary of Example 1; flow cytometry on cells
Method: as §1

[10] = biological target: T3, Mouse CD20 with C-terminal Idectin …; assay: flow cytometry on transfected CHO cells
Method: as §1

[11] = biological target: T4, Rat CD20; assay: flow cytometry staining of rat splenic B cells and two rat B cell lines

geometric mean of fluorescence intensity [1]	geometric mean of fluorescence intensity [2]	geometric mean of fluorescence intensity [3]	geometric mean of fluorescence intensity [4]	geometric mean of fluorescence intensity [5]	geometric mean of fluorescence intensity [6]	geometric mean of fluorescence intensity [7]	binding result [8]	binding result [9]	binding result [10]	binding result [11]	Molecule
3.6	3.8	5.9	4.2	3.4	3.8	4.1					IgG2b isotype control antibody
							binds	binds	binds	no binding	18B12 IgG1 mouse anti-mouse CD20 monoclonal antibody (antibody, V domains shown, N-terminal pyroglutamic acid (N-terminal glutamine blocked), also called 18B12 antibody; 18B12-A1C3-H3) VH: QVQLQQPGAELVRPGTSVKLSCKASGYTFTSYWMHWIKQRPGQGLEWIGVIDPSDNYTKYNQKFKGKATLTVDTSSSTAYMQLSSLTSEDSAVYFCAREGYYGSSPWFAYWGQGTLVTVSS VL: QIVMSQSPAILSASPGEKVTMTCRARSSVSYIHWYQQKPGSSPKPWIYATSNLASGVPGRFSGSGSGTSYSLTITRVEAEDAATYYCQQWSSKPPTFGGGTKLEIKR
